Values quoted from earlier work in PMC1513386.
Like-named read-outs stand apart in the source and are kept apart here.

Assays:
Asp10 = Asp10 (UniProt position 10, VEIFTDGSCLG); test: NMR
Asp102 = Asp102 (UniProt position 102, PVKNVDLWQRL); test: NMR
Asp148 = Asp148 (UniProt position 148, NPTLEDTGYQV); test: NMR
Asp70 = Asp70 (UniProt position 70, VILSTDSQYVR); test: NMR
Asp18 = Asp18 (UniProt position 36, KRLGLDNYRGY); test: NMR
Asp48 = Asp48 (UniProt position 66, TNRNTDGSTDY); test: NMR
Asp66 = Asp66 (UniProt position 84, RWWCNDGRTPG); test: NMR
Asp87 = Asp87 (UniProt position 105, ALLSSDITASV); test: NMR
Glu35 = Glu35 (UniProt position 53, CAAKFESNFNT); test: NMR
Glu7 = Glu7 (UniProt position 25, VYGRCELAAAM); test: NMR
Asp44 = Asp44 (UniProt position 44, AARQPDLIPLL); test: NMR
Asp61 = Asp61 (UniProt position 61, VMGLVDAIPMI); test: NMR
Asp7 = Asp7 (UniProt position 7, ENLNMDLLYMA); test: NMR
Glu2 = Glu2 (UniProt position 2, ----MENLNMD); test: NMR
Glu37 = Glu37 (UniProt position 37, GGKFLEGAARQ); test: NMR
Asp21 = Asp21 (UniProt position 41, VSILSDASFNQ); test: NMR
Asp30 = Asp30 (UniProt position 50, NQCSTDSGYSM); test: NMR
Asp72 = Asp72 (UniProt position 92, NPPNCDLTVPT); test: NMR
Glu115 = Glu115 (UniProt position 142, SKKPKENPGPA); test: NMR
Glu96 = Glu96 (UniProt position 123, DHYLLEFPTFP); test: NMR
Asp101 [1] = target: Asp101 (UniProt position 148, IYKTTDHYQTF); settings: not stated (values are paired with the folded structure 1A2P; ref 20 covers native and denatured states)
Asp54 = Asp54 (UniProt position 101, KSIGGDIFSNR); settings: not stated (values are paired with the folded structure 1A2P; ref 20 covers native and denatured states)
Asp93 = Asp93 (UniProt position 140, ILYSSDWLIYK); settings: not stated (values are paired with the folded structure 1A2P; ref 20 covers native and denatured states)
Glu73 = Glu73 (UniProt position 120, GRTWREADINY); settings: not stated (values are paired with the folded structure 1A2P; ref 20 covers native and denatured states)
Asp59 = Asp59 (UniProt position 80, VCCSTDKCN--)
Asp101 [2] = target: Asp101 (UniProt position 129, GTVKSDGGTYD)
Asp106 = Asp106 (UniProt position 134, DGGTYDIYTTT)
Asp11 = Asp11 (UniProt position 39, WQNWTDGGGIV)
Asp83 = Asp83 (UniProt position 111, EYYVVDSWGTY)
Glu172 = Glu172 (UniProt position 200, QVMATEGYQSS)
Asp26 = Asp26 (UniProt position 26, KLVVVDFSATW)
Glu6 = Glu6 (UniProt position 6, MVKQIESKTAF); settings: listed under PDB 1TRS; redox state not stated in the article, and 1TRS is the oxidised form (inferred)
Glu68 = Glu68 (UniProt position 68, QDVASECEVKC)
[3] = listed under PDB 1TRS, redox state not stated in the article, and 1TRS is the oxidised form (inferred)
[4] = listed under PDB 1TRW, redox state not stated in the article, and 1TRW is the reduced form (inferred)

Ribonuclease HI (Escherichia coli)
pKa (Asp10): 6.10
pKa (Asp102): 2.00
pKa (Asp148): 2.00
pKa (Asp70): 2.60

Lysozyme C (turkey egg white) (Meleagris gallopavo)
pKa (Asp18): 2.70
pKa (Asp48): 2.50
pKa (Asp66): 2.00
pKa (Asp87): 2.10
pKa (Glu35): 6.10
pKa (Glu7): 2.70

F1Fo ATP synthase subunit c (Escherichia coli)
pKa (Asp44): 5.60
pKa (Asp61): 7.00
pKa (Asp7): 5.60
pKa (Glu2): 5.50
pKa (Glu37): 5.50

Beta-elicitin cryptogein (Phytophthora cryptogea)
pKa (Asp21): 2.50
pKa (Asp30): 2.50
pKa (Asp72): 2.60

Alpha-sarcin (cytotoxic ribonuclease) (Aspergillus giganteus)
pKa (Glu115): 4.90
pKa (Glu96): 5.10

Barnase (ribonuclease) (Bacillus amyloliquefaciens)
pKa (Asp101 [1]): 2.00
pKa (Asp54): 2.00
pKa (Asp93): 2.00
pKa (Glu73): 2.10

Snake cardiotoxin (PDB 1KXI, cardiotoxin V / A5) (Naja atra)
pKa (Asp59): 2.30

Endo-1,4-beta-xylanase (Bacillus circulans xylanase) (Bacillus circulans)
pKa (Asp101 [2]): 2.00
pKa (Asp106): 2.70
pKa (Asp11): 2.50
pKa (Asp83): 2.00
pKa (Glu172): 6.70

Thioredoxin (Homo sapiens)
pKa (Asp26; [3]): 8.10
pKa (Asp26; [4]): 9.90
pKa (Glu6): 4.90
pKa (Glu68; [3]): 5.10
pKa (Glu68; [4]): 4.90
